System: NC(C(=O)O)C(O)c1ccccc1
Test: purified protein
Conditions: pH 7.8; 40.0 °C

AnSHMT (Glutamicibacter nicotianae; I249L)
Km: 61.95 ± 0.13 mM
kcat/Km: 76.8 M⁻¹ s⁻¹
